Source: patent publication US20220242973A1 (Molecular Partners, published 2022)

Assays:
[1] = target: T1, Human FAP expressed on the cell surface (WI38, CHO-FAP1.9, U87MG cells) (human, UniProt Q12884 1-760); assay: FACS on WI38 cells (FAP on the cell surface), His-tag detected with Penta-His AF647 conjugate, median fluorescence intensity
T1 construct: whole, on cells; Endogenous on WI38 and U87MG cells; from a human FAP cDNA (OriGene) in CHO-FAP1.9 cells; also called hFAP; FAP+ cells
T1 sequence (looked up): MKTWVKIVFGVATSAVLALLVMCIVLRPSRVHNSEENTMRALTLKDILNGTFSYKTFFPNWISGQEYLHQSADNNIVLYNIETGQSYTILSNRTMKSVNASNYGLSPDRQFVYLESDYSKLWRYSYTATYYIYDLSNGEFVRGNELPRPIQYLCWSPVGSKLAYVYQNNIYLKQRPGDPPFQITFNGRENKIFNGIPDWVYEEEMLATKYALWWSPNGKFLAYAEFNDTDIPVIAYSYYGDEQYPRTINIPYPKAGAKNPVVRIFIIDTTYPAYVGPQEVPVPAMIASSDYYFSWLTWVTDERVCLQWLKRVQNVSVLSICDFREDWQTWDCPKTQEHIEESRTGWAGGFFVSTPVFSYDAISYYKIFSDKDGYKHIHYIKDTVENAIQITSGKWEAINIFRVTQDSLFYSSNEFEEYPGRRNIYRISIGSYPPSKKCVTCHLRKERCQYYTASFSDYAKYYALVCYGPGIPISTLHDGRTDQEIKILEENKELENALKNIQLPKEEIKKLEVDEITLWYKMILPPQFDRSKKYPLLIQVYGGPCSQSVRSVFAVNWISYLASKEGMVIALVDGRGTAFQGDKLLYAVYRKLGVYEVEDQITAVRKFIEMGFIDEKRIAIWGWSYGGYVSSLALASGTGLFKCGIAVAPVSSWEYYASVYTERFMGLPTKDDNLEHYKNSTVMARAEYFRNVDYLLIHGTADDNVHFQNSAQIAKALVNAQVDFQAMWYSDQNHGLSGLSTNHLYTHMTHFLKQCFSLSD
Procedure: (§1) In order to determine whether the fusion of a biologically active molecule to a FAP-specific ankyrin repeat domain affects the ability of the molecule to specifically recognize and bind to FAP expressed on the surface of cells, the binding of selected ankyrin repeat fusion proteins to FAP-expressing cells was tested. U87 MG cells and WI38 cells are known to express FAP on the cell surface and they were chosen as representative cells for these experiments. FAP expression on the U87 MG and WI38 cells was confirmed by FACS analysis (data not shown).
(§2) Using multi-well plates, 40,000 cells (either U87MG or WI38) were added per well in 50 μl of PBS. 50 μl of appropriate dilutions (2× dilution steps) of ankyrin repeat fusion protein (DARPin® protein #40 or DARPin® protein #41) was then added to the cells and incubated for 30 minutes on ice. After the ankyrin repeat fusion protein-binding reaction, cells were washed twice with PBS. Direct immunofluorescent detection of the His-tagged ankyrin repeat fusion proteins using Penta-His AF647 conjugate (QIAgen) and determination of live cells using LIVE/DEAD™ Fixable Green Dead Cell Stain Kit (ThermoFisher) were then performed together in one step. […] Acquisition and FACS analysis, including the determination of median fluorescence intensity (MFI), were done within 5 days after staining using an AttuneNxT instrument. […]

[2] = target: T1, Human FAP expressed on the cell surface …; assay: FACS on U87MG cells (FAP on the cell surface), His-tag detected with Penta-His AF647 conjugate, median fluorescence intensity
Procedure: as §1, §2

B1: DARPin® protein #40 (designed binder)
chain: MRGSHHHHHHGSDLGKKLLEAARAGQDDEVRELLKAGADVNAKDYFSHTPLHLAARNGHLKIVEVLLKAGADVNAKDFAGKTPLHLAANEGHLEIVEVLLKAGADVNAQDIFGKTPADIAADAGHEDIAEVLQKAAGSPTPTPTTPTPTPTTPTPTPTGSDLGKKLLEAARAGQDDEVRILLAAGADVNAKDVLGWTPLHLAAFEGHLEIVEVLLKAGADVNAKDKKGWTPLQLAARTGHLEIVEVLLKAGADVNAKDHIGATPLHLAAWQGHPEIVEVLLKAGADVNAQDKSGKTPADLAADAGHEDIAEVLQKAA
notes: Fusion of a serum albumin-specific and a FAP-specific ankyrin repeat domain
EC50 (read off the curve) [1]: ~2 nM
EC50 (read off the curve) [2]: ~2 nM
